The record followed here is PMC9870916, “The mitochondrial inhibitor IF1 binds to the ATP synthase OSCP subunit and protects cancer cells from apoptosis” (Cell Death & Disease, 2023).

This assay has as its target T1, OSCP-NT (R6-G114) (human, UniProt P48047 29-137).
T1 construct: Used unlabelled (added in excess) or 15N-labelled (observed); cleavage leaves no additional residues; also called N-terminal domain of OSCP; source: E. coli BL21(DE3), purified (Ni-HisTrap, Ulp1 cleavage, cation exchange, Superdex 75); not shown: His6-SUMO, N-terminal, cleaved
T1 sequence (looked up): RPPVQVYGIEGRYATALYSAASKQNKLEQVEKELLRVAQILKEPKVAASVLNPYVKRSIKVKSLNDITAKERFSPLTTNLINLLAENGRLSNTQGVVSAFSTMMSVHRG
The experiment in a line: NMR titration; 1H-15N SOFAST-HMQC of 15N-labelled IF1-NT without and with 15-fold molar excess of unlabelled OSCP-NT or OSCP-CT; for OSCP-NT: 30 μM IF1-NT, 450 μM OSCP-NT, 50 mM phosphate, 300 mM NaCl, pH 7.0, 7 °C. To be noted: both partners purified.

B1: IF1-NT (G1-E40) (domain or fragment, human, UniProt Q9UII2 26-65, looked up)
chain: GSDQSENVDRGAGSIREAGGAFGKREQAEEERYFRAQSRE
notes: Used 15N-labelled (observed) or unlabelled (added in excess); cleavage leaves no additional residues; also called IF1-1NT; N-terminal domain of IF1; source: E. coli BL21(DE3), purified (Ni-HisTrap, Ulp1 cleavage, second Ni-HisTrap, Superdex 75); not shown: His6-SUMO, N-terminal, cleaved
Take B1: the binding result is on record as “binds”.
